Key:
recombinant canine β NGF [1] = target: T1, recombinant canine β NGF (canine, UniProt Q29074 110-229 (pig entry)); experiment: cell-based or functional assay
T1 chain: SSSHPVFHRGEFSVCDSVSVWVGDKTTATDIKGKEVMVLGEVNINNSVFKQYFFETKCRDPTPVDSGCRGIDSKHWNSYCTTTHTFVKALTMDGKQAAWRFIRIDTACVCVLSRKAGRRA

recombinant canine β NGF [2] = target: T2, recombinant canine β NGF (canine, UniProt Q29074 110-229 (pig entry)); experiment: cell-based or functional assay
T2 chain: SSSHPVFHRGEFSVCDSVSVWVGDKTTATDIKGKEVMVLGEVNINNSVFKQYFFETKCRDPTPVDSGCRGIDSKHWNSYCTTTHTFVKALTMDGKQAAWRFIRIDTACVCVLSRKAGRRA

recombinant canine β NGF [3] = target: T2, recombinant canine β NGF; experiment: SPR (Biacore T100), antibody captured on goat anti-canine IgG, canine NGF injected; Average
Description: (§1) Purified mouse/canine chimeric antibodies and caninized antibodies were analyzed for affinity to canine NGF using a Biacore T100 instrument. Goat anti Canine IgG (Southern Biotech) was immobilized at 5000-10000 RU on a CM5 chip using an amine coupling procedure according to the manufacturer's instructions (Biacore). […] The association rate was monitored for 5 min and the dissociation rate was monitored for 10-20 min. The chip surface was regenerated using 50-75 ul 10 mM glycine pH 1.5 at a flow rate of 50-100 ul/min. Data was analyzed using Biaevaluation T100 software version 2.0.2, software, GE Healthcare Life Sciences (Piscataway, N.J.). Overall affinity parameters established for mouse/canine chimeric antibodies is summarized in Table 22 and for caninized antibodies in Table 23. […] The overall KDs of the mouse/canine anti-NGF mAbs range from about 1300 pM to 1.6 pM. […] The overall KDs of the caninized anti-NGF mAbs range from about 42 pM to 1.2 pM.

recombinant canine β NGF [4] = target: T2, recombinant canine β NGF; experiment: SPR (Biacore T100), antibody captured on goat anti-canine IgG, canine NGF injected; Expt 2
Description: as §1

recombinant canine β NGF [5] = target: T2, recombinant canine β NGF; experiment: SPR (Biacore T100), antibody captured on goat anti-canine IgG, canine NGF injected; Expt 1
Description: as §1

B1: PR-1254981 (antibody, mouse IgG1, V domains shown)
VH: EVQLVESGGGAVKPGGSLTLSCAASGFTFSNHYMYWVRQTPEKRLEWVASISDGGAYTFYPDTVKGRFTISRDNVNNNLYLQMRHLKSEDTAMYYCTREESANNGFAFWGQGTLVTVSA
VL: DVLMTQTPLSLPVSLGDQASISCRSSQSILHSNGNTYLEWYLQKPGQSPNLLIYRVSNRFSGVPDRFSGSGSGTDFTLKISRVEAEDLGVYYCFQGAHVPFTFGSGTKLEIKR
With B1 the “PathHunter IC50 (441 pM canine NGF)” value (recombinant canine β NGF [1]) was under 1 nM and the “SureFire cellular pERK IC50 (128 pM canine NGF)” value (from here on “SureFire cellular pERK IC50”) (recombinant canine β NGF [1]) was under 1 nM.

B2: PR-1254982 (antibody, mouse IgG1, V domains shown)
VH: QVQLKESGPGLVAPSQSLSITCTVSGFSLTGYNINWVRQPPGKGLEWLGMIWGYGDTDYNSALKSRLSISKDNSKSQVFLKMNSLQTDDTARYYCARDHYGGNDWYFDVWGTGTTVTVSS
VL: DIQMTQTTSSLSASLGDRVTITCRASQDITNYLNWYQQKPDGTVKLLIYYTSRLHSGVPSRFSGSGSGTDYSLTISNLDQEDIATYFCQQGKTLPRTFGGGTKLEIKR
For B2, the “PathHunter IC50 (441 pM canine NGF)” value (recombinant canine β NGF [1]) was under 1 nM and the “SureFire cellular pERK IC50” value (recombinant canine β NGF [1]) was under 1 nM.

B3: PR-1254973 (antibody, mouse IgG2b, V domains shown)
VH: QVQLQQPGAELVKPGASVKLSCKASGYTFTNYWMHWVKQRPGQGLEWIGRIDPYGGGTKHNEKFKRKATVTADKSSSTAYILLSSLTSEDSAVYYCTRSGYDYYFDVWGTGTTVTVSS
VL: DIQMTQSPASLSASVGETVTVTCRASENIYSFLAWHQQKQGKSPQLLVYNANTLAEGVPSRFSGSGSGTQFSLKINSLQPEDFGSYYCQHHFGTPFTFGSGTKLEIKR
B3 was tested, and the “PathHunter IC50 (441 pM canine NGF)” value (recombinant canine β NGF [1]) was under 1 nM and the “SureFire cellular pERK IC50” value (recombinant canine β NGF [1]) was under 1 nM.

B4: Mu73 Canine IgG1/k Chimera (antibody, V domains shown)
VH: QVQLQQPGAELVKPGASVKLSCKASGYTFTNYWMHWVKQRPGQGLEWIGRIDPYGGGTKHNEKFKRKATVTADKSSSTAYILLSSLTSEDSAVYYCTRSGYDYYFDVWGTGTTVTVSS
VL: DIQMTQSPASLSASVGETVTVTCRASENIYSFLAWHQQKQGKSPQLLVYNANTLAEGVPSRFSGSGSGTQFSLKINSLQPEDFGSYYCQHHFGTPFTFGSGTKLEIKR
In the case of B4, the “TF-1 cell proliferation potency (70 pM canine NGF)” value (“TF-1 cell proliferation potency” below) (recombinant canine β NGF [1]) is reported as under 50 pM.

B5: Mu77 Canine IgG1/k Chimera (antibody, V domains shown)
VH: EVQLQQSGAELVKPGASVKLSCTASGFNIKDTYIYWVKQRPEQGLEWIGRIDPANGNTIYASKFQGKASITADTSSNTAYMQLSSLTSGDTAVYYCAGYGYYAYWGQGTTLTVSS
VL: DVVLTQTPLSLPVNIGDQASISCKSTKSLLNGDGFTYLDWYLQKPGQSPQLLIYLVSNRFSGVPDRFSGSGSGTDFTLKISRVEAEDLGVYYCFESNYLFTFGSGTKLEMKR
With B5 the “TF-1 cell proliferation potency” value (recombinant canine β NGF [1]) was under 50 pM.

B6: Mu81 Canine IgG1/k Chimera (antibody, V domains shown)
VH: EVQLVESGGGAVKPGGSLTLSCAASGFTFSNHYMYWVRQTPEKRLEWVASISDGGAYTFYPDTVKGRFTISRDNVNNNLYLQMRHLKSEDTAMYYCTREESANNGFAFWGQGTLVTVSA
VL: DVLMTQTPLSLPVSLGDQASISCRSSQSILHSNGNTYLEWYLQKPGQSPNLLIYRVSNRFSGVPDRFSGSGSGTDFTLKISRVEAEDLGVYYCFQGAHVPFTFGSGTKLEIKR
In the case of B6, the “TF-1 cell proliferation potency” value (recombinant canine β NGF [1]) is reported as under 50 pM.

B7: Mu82 Canine IgG1/k Chimera (antibody, V domains shown)
VH: QVQLKESGPGLVAPSQSLSITCTVSGFSLTGYNINWVRQPPGKGLEWLGMIWGYGDTDYNSALKSRLSISKDNSKSQVFLKMNSLQTDDTARYYCARDHYGGNDWYFDVWGTGTTVTVSS
VL: DIQMTQTTSSLSASLGDRVTITCRASQDITNYLNWYQQKPDGTVKLLIYYTSRLHSGVPSRFSGSGSGTDYSLTISNLDQEDIATYFCQQGKTLPRTFGGGTKLEIKR
In the case of B7, the “TF-1 cell proliferation potency” value (recombinant canine β NGF [1]) is reported as under 50 pM.

B8: 72.3 Canine IgG1/k (antibody, V domains shown)
VH: EVHLVESGGDLVKPGGSLRLSCVASGFTFSDYYMFWIRQSPGKGLEWVATISDGGSYTYYTDNVKGRFTISRDNANNNLYLQMNSLKAEDTAVYYCAKDWSDSEGFAYWGQGTLVTVSS
VL: DVLMTQTPPSLSVSPREPASISCRSSQSIVQSNGNTYLEWYLQKPGQSPKLLIYKVSNRFSGVPDRFSGSGSGTDFTLRISRVEADDTGVYYCFQGSHVPFTFGAGTKVELKR
With B8 the “IC50, canine NGF-induced TF-1 cell proliferation (70 pM canine NGF)” value (“IC50 … (70 pM canine NGF)” for short) (recombinant canine β NGF [2]) was 0 nM.

B9: 72.4 Canine IgG1/k (antibody, V domains shown)
VH: EVHLVESGGDLVKPGGSLRLSCVASGFTFSDYYMFWVRHSPGKGLEWVATISDGGSYTYYTDNVKGRFTISRDNANNTLYLQMNSLRAEDTAVYYCAKDWSDSEGFAYWGQGTLVTVSS
VL: DIVMTQTPPSLSVSPREPASISCRSSQSIVQSNGNTYLEWYLQKPGQSPKLLIYKVSNRFSGVPDRFSGSGSGTDFTLRISRVEADDTGVYYCFQGSHVPFTFGAGTKVELKR
B9 was tested, and the “IC50 … (70 pM canine NGF)” value (recombinant canine β NGF [2]) was 0 nM.

B10: 73.2 Canine IgG1/k (antibody, V domains shown)
VH: QVQLVQSAAEVKKPGASVKVSCKASGYTFTNYWMHWVQQAPGAGLEWIGRIDPYGGGTKHNEKFKRRATVTADKSTSTAYMELSNLRTEDTAVYYCTRSGYDYYFDVWGQGTLVTVSS
VL: DIQMTQTPLSLSASPGESASITCRASENIYSFLAWHRQKPGQSPQLLVYNANTLAEGVPSRFSGSGSGTQFTLRISRVEDEDAGLYYCQHHFGTPFTFGQGTKLEIKR
notes: The variable/constant junction was not checked; also called PR-1313520; PR-13113520
B10 gave a Kd (recombinant canine β NGF [3]) of 0.043 nM, a koff (recombinant canine β NGF [3]) of 0.00029 s⁻¹ and a kon (recombinant canine β NGF [3]) of 6.6e+06 M⁻¹ s⁻¹. It also gave a Kd (recombinant canine β NGF [4]) of 0.042 nM, a koff (recombinant canine β NGF [4]) of 0.00029 s⁻¹ and a kon (recombinant canine β NGF [4]) of 6.9e+06 M⁻¹ s⁻¹. The “IC50 … (70 pM canine NGF)” value (recombinant canine β NGF [2]) was 0.422 nM, the Kd (recombinant canine β NGF [5]) was 0.044 nM and the koff (recombinant canine β NGF [5]) was 0.00028 s⁻¹. For the same binder, the kon (recombinant canine β NGF [5]) was 6.3e+06 M⁻¹ s⁻¹.

B11: 73.4 Canine IgG1/k (antibody, V domains shown)
VH: EVQLVQSAAEVKKPGASVKVSCKASGYIFINYWMHWVQQAPGAGLEWMGRIDPYGGGTKHNEKFKRRVTLTADKSTSTVYMELSNLRTEDTAVYYCTRSGYDYYFDVWGQGTLVTVSS
VL: DIQMTQTPLSLSASPGESASISCRASENIYSFLAWHRQKPGQSPQLLIYNANTLAEGVPSRFSGSGSGTQFTLRISRVEDEDAGLYYCQHHFGTPFTFGQGTKLEIKR
With B11 the “IC50 … (70 pM canine NGF)” value (recombinant canine β NGF [2]) was 0 nM.

B12: 77.3 Canine IgG1/k (antibody, V domains shown)
VH: EVQLVQSAAEVKKPGASVKVSCKASGFNIKDTYIYWVKQAPGAGLEWIGRIDPANGNTIYASKFQGKASITADTSTNTAYMELSNLRTEDTAVYYCAGYGYYAYWGQGTLVTVSS
VL: DVVLTQTPRSLSVSPGETASISCKSTKSLLNGDGFTYLDWYRQKPGQSPQLLIYLVSNRFSGVPDRFSGSGSGTDFTLRISRVEADDTGLYYCFESNYLFTFGQGTNLEMKR
B12 was tested, and the “IC50 … (70 pM canine NGF)” value (recombinant canine β NGF [2]) was 0.625 nM.

B13: 77.4 Canine IgG1/k (antibody)
heavy: EVQLVQSAAEVKKPGASVKVSCKASGYIFIDTYIYWVKQAPGAGLEWMGRIDPANGNTIYASKFQGRVTLTADTSTNTVYMELSNLRTEDTAVYYCAGYGYYAYWGQGTLVTVSSASTTAPSVFPLAPSCGSTSGSTVALACLVSGYFPEPVTVSWNSGSLTSGVHTFPSVLQSSGLHSLSSMVTVPSSRWPSETFTCNVVHPASNTKVDKPVFNECRCTDTPPCPVPEPLGGPSVLIFPPKPKDILRITRTPEVTCVVLDLGREDPEVQISWFVDGKEVHTAKTQSREQQFNGTYRVVSVLPIEHQDWLTGKEFKCRVNHIDLPSPIERTISKARGRAHKPSVYVLPPSPKELSSSDTVSITCLIKDFYPPDIDVEWQSNGQQEPERKHRMTPPQLDEDGSYFLYSKLSVDKSRWQQGDPFTCAVMHETLQNHYTDLSLSHSPGK
light: DLVLTQTPRSLSVSPGETASISCKSTKSLLNGDGFTYLDWYRQKPGQSPQLLIYLVSNRFSGVPDRFSGSGSGTDFTLRISRVEADDTGLYYCFESNYLFTFSQGTNLEMKRNDAQPAVYLFQPSPDQLHTGSASVVCLLNSFYPKDINVKWKVDGVIQDTGIQESVTEQDKDSTYSLSSTLTMSSTEYLSHELYSCEITHKSLPSTLIKSFQRSECQRVD
In the case of B13, the “IC50 … (70 pM canine NGF)” value (recombinant canine β NGF [2]) is reported as 0 nM.

B14: 82.4 Canine IgG1/k (antibody, V domains shown)
VH: EVQLQESGPGLVKPSQTLSLTCTVSGGSVTGYNINWIRQRPDRGLEWMGMIWGYGDTDYNSALKSRISITKDNTKSQLFLQLTSTTTEDTAVYYCARDHYGGNDWYFDVWGQGTLVTVSS
VL: DIQMTQTPLSLSASPGESASISCRASQDITNYLNWYRQKPGQSPKLLIYYTSRLHSGVPSRFSGSGSGTDYTLRISRVEDEDAGLYFCQQGKTLPRTFGQGTKLEIKR
notes: The variable/constant junction was not checked; also called PR-1313521; PR-13113521
For B14, the Kd (recombinant canine β NGF [3]) was 0.0014 nM, the koff (recombinant canine β NGF [3]) was 1.2e-05 s⁻¹ and the kon (recombinant canine β NGF [3]) was 8.2e+06 M⁻¹ s⁻¹. It also gave a Kd (recombinant canine β NGF [4]) of 0.0015 nM, a koff (recombinant canine β NGF [4]) of 1.2e-05 s⁻¹ and a kon (recombinant canine β NGF [4]) of 7.7e+06 M⁻¹ s⁻¹. For the same binder, the “IC50 … (70 pM canine NGF)” value (recombinant canine β NGF [2]) was 16 pM, the Kd (recombinant canine β NGF [5]) was 0.0012 nM and the koff (recombinant canine β NGF [5]) was 1.1e-05 s⁻¹. For the same binder, the kon (recombinant canine β NGF [5]) was 8.6e+06 M⁻¹ s⁻¹.

Source: patent US20180362629A1 (ZOETIS BELGIUM S A, published 2018)
